From PMC9917868

What was measured:
[1] = biological target: VAP, endogenous in cultured rat hippocampal neurons (UniProt Q9Z270); assay: GST pulldown with peptide competition, Western blot densitometry (VAP left on GST-NRG2_CD bait; lower signal = stronger competition by the peptide); conditions: lysate of untransduced neurons, n = three independent experiments, parent: est. 0.14, read off a plot, scale: normalized VAP signal
[2] = biological target: VAP, endogenous in cultured rat hippocampal neurons (UniProt Q9Z270); assay: co-immunoprecipitation (IP: NRG2 (V5)), Western blot densitometry; conditions: AAV-transduced neurons; n = four independent experiments; parent: 1.00; read off a plot
[3] = biological target: crNRG2 (cleavage-resistant variant of proNRG2) (human) (UniProt O14511); assay: co-IP; co-IP of VAP with crNRG2 from transduced rat hippocampal neurons; neurons untreated (Ctrl), treated 10 min with NMDA (50 µM), or with NMDA and D-AP5 (50 µM); VAP signals normalized to Ctrl = 1

Row | ratio to parent [2] | Substance | other results
1 |  | D-WT peptide (wild-type D-box peptide of NRG2) D620K; E622K | response [1]: 0.63
2 | 0 | V5 epitope-tagged proNRG2 (wild type), expressed in cultured rat hippocampal neurons (from UniProt O14511) S494A; S497A; S502A; T506A; S511A | 
3 | 0 | V5 epitope-tagged proNRG2 (wild type), expressed in cultured rat hippocampal neurons (from UniProt O14511) S494A; S497A; S502A; T506A; S511A; S613A; T625A; T626A | 
4 | 0.73 | V5 epitope-tagged proNRG2 (wild type), expressed in cultured rat hippocampal neurons (from UniProt O14511) S613A; T625A; T626A | 
5 |  | VAP, endogenous in cultured rat hippocampal neurons (from UniProt Q9Z270 1-249) (natural protein) | normalized VAP co-IP signal after 10 min NMDA 50 µM (Ctrl = 1) (relative to Ctrl = 1) [3]: 0.31; normalized VAP co-IP signal after NMDA with D-AP5 50 µM (Ctrl = 1) (relative to Ctrl = 1) [3]: 1.1
